Data reported in paper PMC2784926.

Target: β-catenin (UniProt P35222)
Experiment: GST pull-down after in vitro kinase reaction
Settings: reference: WT His-α-catenin with CK2α; sites S641

binding against the reference: stronger
Substance: α-catenin (from UniProt P35221) His-α-catenin S641A with CK2α
